This assay has as its target Soluble CD28-Ig (extracellular domain of human CD28 fused to the Fc portion of human IgG1) (human), P10747. Put plainly: competitive FACS on transfected cells, biotin-sCD28-Ig with FITC-sCTLA-4-Ig; grade 0-2 of CD28/CTLA-4 ratio vs WT hB7-1.

B1: Round 2 CD28A12-5 (ligand)
chain: ITPKSVTKRVKETVMLSCDYNTSTEELTSLRIYWRKDSKMXLAILPGKVQVWPEYKNRTITDMNDNLRIVILALRLSDSGTYTCVIQKPDLKGAYKLEHLTSVRLMIRADFPVPTINDLGNPSPNIRRLICSTSGGFPRPHLYWLENGEELNATNTTVSQDPGTELYMISSELDFNVTNNHSIVCLIKYGELLVSQIFPWSKPKQEPPIDQLPFWVIIPVSGALVLTAVVLYCLACRHVARWKRTRRNEETVGTERLSPIYLGSAQSSG
modifications: not fully specified; X: residue not identified in the source; ends and bridges not checked; also: glycosylated membrane protein, sites not given here
As to B1, the Binding Score stood at 1.

B2: Round 2 CD28A4-9 (ligand)
chain: ITPKSVTKRVKETVMLSCDYNTSTEKLTSLRIYWQKDSKMVLAILPGKVQVWPEYKNRTITDMNDNPRIVILALRLSDSGTYTCVIQKPVLKGAYKLEHLTSVRLMIRADFPVPTINDLGNPSPNIRRLICSTSGGFPRPHLYWLENGEELNATNTTVSQDPETKLYMISSELDFNVTNNHSIVCLIKYGELSVSQIFPWSKPKQEPPIDQLPFWVIIPVSGALVLTAVVLYCPACRHVARWKRTRRNEETVGTERLSPIYLGSAQSRAEVPSLSX
modifications: not fully specified; X: residue not identified in the source; ends and bridges not checked
As to B2, the Binding Score is 1.
